Assay [1] addresses T1, Human PD-L1/CD274 with C-Fc Tag (hPD-L1-Fc) (human, UniProt Q9NZQ7 19-238).
T1 construct: range 19-238; ACRO Biosystem PD1-H5258, made in HEK293; also called human PD-L1-Fc; not shown: Fc fragment of human IgG1 at C-terminus
The assay is described as follows: blocking ELISA on coated hPD-L1-Fc; blocked ligand: biotinylated hPD-1-N297A. The protocol:
High-binding clear polystyrene 96 well plates (Nunc) were coated with 100 μl/well of coating solution consisting of 1 μg/ml hPD-L1-Fc overnight at 4° C. Then the plates were washed once on an automatic plate washer using washing buffer (PBS+0.1% Tween 20 (Sigma)). 200 μl of blocking buffer (PBS+1% BSA+1% normal goat serum+0.05% Tween-20) was added to each well and incubated 2 hours at room temp. […] The plates were then washed 3 times using the method described above. […] After the plates were washed 3 times, 100 μl/well of a solution of 1:5000 diluted HRP conjugated Neutravidin antibody (Pierce) in dilution buffer was then added to each well of the plate. After that the ELISA plates were allowed to incubate for 60 min at RT, then the plates were washed 3 times with 250 μl/well washing buffer. Finally, 100 μl/well of TMB was added to each well and the reaction was terminated using 0.64M H₂SO₄. The plates were read on a Thermo Multiscan FC at 450 nM (see FIG. 18A to 18D).

The target of assay [2] is hPD-L1 (antigen of the Biacore assay) (human, UniProt Q9NZQ7 19-238, limits assumed). The assay is described as follows: SPR (Biacore), antibody captured on anti-human Fc, antigen in flow. On the procedure:
A CM5 sensor chip was activated in each flow cell by 7-min injection (10 μl/min) of freshly prepared 1:1 50 mM N-hydroxysuccinimide (NHS): 200 mM 1-ethyl-3-(3-dimethylaminopropyl)-carbodiimide (EDC). Then anti-human Fc antibody (GE Healthcare) in a concentration of 10 μg/ml in 10 mM sodium acetate buffer PH 5.0 was injected onto the activated chip at 10 μl/min (HBS-EP running buffer: 10 mM HEPES, 150 mM NaCl, 3.4 mM EDTA, 0.005% surfactant P20, pH 7.4). The remaining active coupling sites were blocked by 7 min injection of 1M ethanolamine at 10 μl/min. The immobilization level of each flow cell is ˜9000RU. Antibodies were captured in FC2 by anti-human Fe IgG (GE Healthcare) to 200˜300RU. FC1 was used as the reference cell. Antigen was injected at varying concentrations after capture of antibody. The association time for antibody binding antigen is 180s. Surface Regeneration condition is 120s at 10 μl/min in Gly pH1.5. The signals with captured antibody subtracted from those without captured antibody were calculated with Biacore X100 evaluation software ver. 2.0 (Biacore).
For orientation: In SPR one partner is held on a chip, and binding of the other changes the refractive index at the surface.

Assay [3] deals with T2, Recombinant Mouse PD-L1/CD274 Protein (mPD-L1-his) (mouse, UniProt Q9EP73 19-238).
T2 construct: range 19-238; ACRO Biosystem PD1-M5220; also called mouse PD-L1-his
T2 sequence (Q9EP73 other isoform, or with tags, fused parts or gaps limits assumed): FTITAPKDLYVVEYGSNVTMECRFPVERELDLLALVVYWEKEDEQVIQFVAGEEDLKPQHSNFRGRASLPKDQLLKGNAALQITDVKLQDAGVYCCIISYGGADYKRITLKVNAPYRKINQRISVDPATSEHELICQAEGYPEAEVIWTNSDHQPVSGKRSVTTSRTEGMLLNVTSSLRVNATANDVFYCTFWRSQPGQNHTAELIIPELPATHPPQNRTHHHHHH
Nature of the assay: ELISA, 20 ug/ml antibody on coated mouse PD-L1 (his-tagged per text, mPD-L1-Fc per sheet title). On the procedure: High-binding clear polystyrene 96 well plates (Nunc) were coated with 100 μl/well of 1 μg/ml mouse PD-L1-his in high pH coating buffer and incubated overnight at 4° C. Then plates were washed once on an automatic plate washer using washing buffer (PBS+0.1% Tween 20 (Sigma)). 200 μl of blocking buffer (PBS+1% BSA+1% normal goat serum+0.05% Tween-20) was added to each well and incubated for 2 hours at room temp. Then add 20 μg/ml purified hybridoma mouse antibodies in dilution buffer (PBS+1% BSA+1% normal goat serum+0.01% Tween-20) and incubate for 1 hour at RT. The plates were then washed 3 times with 250 μl/well washing buffer. 100 μl/well of a solution of HRP conjugated goat anti-mouse Fc antibody (Abcam) in dilution buffer was then added to each well of the plate. After that the ELISA plates were allowed to incubate for 60 min at RT then plates were washed 3 times with 250 μl/well washing buffer. Finally, 100 μl/well of TMB was added to each well and the reaction was terminated using 0.64M H₂SO₄. The plates were read on a Thermo Multiscan FC at 450 nM (see FIG. 6F).
Background: An ELISA detects its analyte on a solid surface through an enzyme-linked reagent.

Assay [4] concerns the target T3, human PD-L1-Fc mutant E58A (human).
T3 construct: Position 58 counts on native human PD-L1 (NP_054862.1); also called E58A mutant
The assay is described as follows: ELISA on captured PD-L1-Fc, as in Example 18A.

Assay [5] has as its target T4, wild type human PD-L1-Fc protein (SEQ ID NO: 107) (human).
T4 construct: Extracellular human PD-L1 (amino acid 19-238) with Fc fragment of human IgG1, expressed in 293T cells and used as culture supernatant; also called WT PD-L1; wild-type PD-L1
Nature of the assay: ELISA on captured PD-L1-Fc, as in Example 18A.

In assay [6] the target is T5, Recombinant Human PD-L1/CD274 Protein (hPD-L1-his) (human, UniProt Q9NZQ7 19-238).
T5 construct: range 19-238; ACRO Biosystem PD1-H5229, made in HEK293; also called human PD-L1-his; hPD-L-his
T5 sequence (Q9NZQ7 other isoform, or with tags, fused parts or gaps limits assumed): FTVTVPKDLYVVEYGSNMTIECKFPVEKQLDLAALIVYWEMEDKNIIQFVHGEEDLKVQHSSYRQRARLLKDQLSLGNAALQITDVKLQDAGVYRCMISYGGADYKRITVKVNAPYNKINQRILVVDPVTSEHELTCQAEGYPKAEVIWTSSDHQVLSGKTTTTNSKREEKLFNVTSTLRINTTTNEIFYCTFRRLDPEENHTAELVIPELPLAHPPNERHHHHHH
The assay is described as follows: ELISA on coated hPD-L1-his.

The target of assay [7] is T6, hPD-L2-Fc (human, UniProt Q9BQ51 20-219).
T6 construct: Acrobiosystems PD2-H5251; also called human PD-L2 protein; not shown: Fc tag
T6 sequence (looked up): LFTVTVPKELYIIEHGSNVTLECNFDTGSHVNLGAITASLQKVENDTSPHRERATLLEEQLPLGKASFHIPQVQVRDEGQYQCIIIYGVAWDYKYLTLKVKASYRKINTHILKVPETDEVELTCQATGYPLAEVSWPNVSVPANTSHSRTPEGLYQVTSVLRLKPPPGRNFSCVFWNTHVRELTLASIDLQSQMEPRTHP
Nature of the assay: ELISA, plate coated with hPD-L2-Fc. On the procedure:
Briefly, high-binding clear polystyrene 96 well plates (Nunc) were coated with 100 μl/well of a 0.5 μg/ml human PD-L1-Fc (Acrobiosystems, Cat #PD1-H5258) or 100 μl/well of a 1 μg/ml hPD-L2-Fc (Acrobiosystems, Cat #PD2-H5251), respectively, in high pH coating buffer (0.16% Na2CO3+0.3% NaHCO₃, pH 9.8) and incubated overnight at 4° C. Then the plates were washed once on an automatic plate washer using washing buffer (PBS+0.1% Tween 20 (Amresco)). 200 μl of blocking buffer (PBS+1% BSA+1% normal goat serum+0.05% Tween-20) was added to each well and incubated for 2 hours at room temp. Then add 100 μl 2 μg/ml purified PD-L1 antibodies with dilution buffer (PBS+1% BSA+1% normal goat serum+0.01% Tween-20) and incubate for 1 hour at RT. The plates were then washed 3 times with washing buffer. 100 μl/well of a solution of HRP conjugated goat anti-mouse IgG antibody (1:20000, Abcam) in dilution buffer was then added to each well of the plate. After that the ELISA plates were allowed to incubate for 60 min at RT then the plates were washed 3 times with 250 μl/well washing buffer. Finally, 100 μl/well of TMB was added to each well for 15 min and the reaction was terminated using 50 ul/well of 0.16 M/L sulfuric acid. The plates were read on a Thermo Multiscan FC at 450 nM (see FIG. 6G).

Sequence of hPD-L1 (antigen of the Biacore assay) (Q9NZQ7 19-238 limits assumed): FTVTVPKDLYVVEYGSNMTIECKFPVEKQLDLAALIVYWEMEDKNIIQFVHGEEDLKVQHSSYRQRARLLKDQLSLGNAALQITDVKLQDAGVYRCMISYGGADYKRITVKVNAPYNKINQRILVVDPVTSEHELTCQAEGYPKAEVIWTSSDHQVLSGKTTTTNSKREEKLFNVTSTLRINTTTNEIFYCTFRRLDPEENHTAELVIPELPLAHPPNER
T1 sequence (Q9NZQ7 19-238 limits assumed): as above
T3 sequence (chain, as listed by the source E58A E58A limits assumed): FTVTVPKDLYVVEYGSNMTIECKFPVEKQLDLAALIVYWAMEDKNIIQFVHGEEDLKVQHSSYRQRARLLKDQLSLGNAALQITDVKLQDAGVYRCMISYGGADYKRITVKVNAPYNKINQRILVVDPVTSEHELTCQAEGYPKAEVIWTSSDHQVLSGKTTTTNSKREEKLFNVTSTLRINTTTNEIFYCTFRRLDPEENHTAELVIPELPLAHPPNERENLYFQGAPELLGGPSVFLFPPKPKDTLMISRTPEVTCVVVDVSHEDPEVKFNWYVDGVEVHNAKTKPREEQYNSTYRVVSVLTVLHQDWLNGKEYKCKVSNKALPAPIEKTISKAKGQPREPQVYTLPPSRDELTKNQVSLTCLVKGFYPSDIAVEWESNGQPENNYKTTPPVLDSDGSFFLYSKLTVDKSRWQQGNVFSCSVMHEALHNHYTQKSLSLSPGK
T4 sequence (chain, as listed by the source limits assumed): as the sequence (chain, as listed by the source E58A E58A limits assumed) above, with A40E counted along it

B1: 4B6-H4L3 (antibody, V domains shown)
VH: QVQLVQSGAEVKKPGASVKVSCKASGYVFTDYYMNWVRQAPGQGLEWIGDINPNNGGTSYNQKFQGRVTVTVDTSIRTAYMELSRLRSDDTAVYYCVKWGDGPFAYWGQGTLVTVSS
VL: DIQMTQSQSSLSASVGDRVTITCQASQNVGAAVAWYQQKPGKAPKLLIYSASNRYTGVPSRFSGSGSGTDFTLTISSMQPEDIATYFCQQYSNYPTFGSGTKLGIK
notes: Humanized; also called humanized 4B6 H4L3
As usually defined, the Kd is the concentration at which binding is half-saturated. Low readings indicate tighter binding, high ones weaker binding. As usually defined, the koff is the first-order rate constant of dissociation. Lower therefore signals slow dissociation. Usually kon stands for a measure of how fast the partners come together. Lower therefore signals slow association. B1: in assay [1], the “IC50 (read off the curve)” value is approximately 0.03 µg/mL. In assay [2], this molecule yielded a Kd of 11.3 nM, a koff of 0.00148 s⁻¹ and a kon of 132000 M⁻¹ s⁻¹.

B2: 4B6-H4L4 (antibody, V domains shown)
VH: QVQLVQSGAEVKKPGASVKVSCKASGYVFTDYYMNWVRQAPGQGLEWIGDINPNNGGTSYNQKFQGRVTVTVDTSIRTAYMELSRLRSDDTAVYYCVKWGDGPFAYWGQGTLVTVSS
VL: DIQMTQSPSSLSASVGDRVTITCQASQNVGAAVAWYQQKPGKAPKLLIYSASNLYTGVPSRFSGSGSGTDFTLTISSLQPEDIATYFCQQYSNYPTFGSGTKLGIK
notes: produced in 293 cells; light chain constant region not described; also called humanized 4B6 H4L4
For the molecule B2, the “IC50 (read off the curve)” value in assay [1] was approximately 0.04 µg/mL.

B3: 18G4 (antibody, V domains shown)
VH: QVQLQQPGTALVKPGASVKLSCKASGYTFSSYYIHWVKQRPGQGLEWIGNINPFNGGSIYNEKFKNKASLTVDTSSNTAYMQLSSLTSEDSAVYYCARWHFDYWGQGTSLTVSS
VL: DIVMTQSPSSLAVTAGEKVTLKCKSSQSLLWSGNQNNYLSWYQQKQGQPPKLLIYGASIRESWVPDRFTGSGSGTDFTLTIGNVSAEDLAVYYCQHNHGSFLPYTFGGGTRLEIK
notes: Mouse monoclonal from hybridoma; also called mouse monoclonal antibody 18G4
For the molecule B3, the binding result in assay [3] is on record as “binds”. In assay [4], the “% of binding of Ab to E58A mutant vs. that to WT PD-L1” value stood at 117%, the “Mean OD450” value came out at 1.7 OD450, the “OD450 nM of sample-1” value worked out at 1.52 OD450 and the “OD450 nM of sample-2” value was 1.88 OD450. Also, in assay [5], the “Mean OD450” value was found to be 1.45 OD450, the “OD450 nM of sample-1” value is 1.56 OD450 and the “OD450 nM of sample-2” value is 1.34 OD450.

B4: 18G4-chimeric (antibody, V domains shown)
VH: QVQLQQPGTALVKPGASVKLSCKASGYTFSSYYIHWVKQRPGQGLEWIGNINPFNGGSIYNEKFKNKASLTVDTSSNTAYMQLSSLTSEDSAVYYCARWHFDYWGQGTSLTVSS
VL: DIVMTQSPSSLAVTAGEKVTLKCKSSQSLLWSGNQNNYLSWYQQKQGQPPKLLIYGASIRESWVPDRFTGSGSGTDFTLTIGNVSAEDLAVYYCQHNHGSFLPYTFGGGTRLEIK
notes: Mouse variable regions fused to a human IgG1 constant region
B4: in assay [2], the affinity, expressed as Kd, was 11.3 nM; the koff worked out at 0.00515 s⁻¹; the kon amounted to 450000 M⁻¹ s⁻¹.

B5: 23F11-H4L6 (antibody, V domains shown)
VH: QVQLVQSGAEVKKPGASVKLSCKASGYIFTTYWMHWVKQRPGQGLEWIGMIQPNSGGTKYNEKFKKKATLTVDKSISTAYMELSRLTSDDTAVYYCARGAGTVDYFDYWGQGSTLTVSS
VL: DIVLTQSPASLAVSVGQRATITCRASESVDIYGNSFMHWYQQKPGQPPKLLIYRASNLESGIPARFSGSGSRTDFTLTINPVEANDTATYYCHQSTEDPYTFGGGTKLEIK
notes: produced in 293 cells; light chain constant region not described; also called humanized 23F11 H4L6
Usually EC50 (read off the curve) stands for the midpoint of the concentration-response curve. Turning to B5, the “EC50 (read off the curve)” value in assay [6] was approximately 2 ng/mL. The “IC50 (read off the curve)” value in assay [1] was approximately 0.04 µg/mL.

B6: 23A11 (antibody, V domains shown)
VH: LVQLQQPGAELVKPGASVKLSCKASGYIFTTYWIHWVKQRPGQGLEWIGMIQPNSGGTKYNDQFKNRATLTVDKSSTTASMQLSGLTSEDSAVYYCARGAGTVDYFDYWGQGTTLSISS
VL: DIVLTQSPASLTVSLGQRATISCRASESVDIYGNSFMHWYQQKPGQSPKLLIYRASNLESGIPARFSGSGSRTDFTLTINPVEADDVATYYCHQSNDDPYTFGGGTKLETK
notes: also called mouse monoclonal antibody 23A11; clone 23A11
Consider B6, for which the binding result in assay [3] was “no binding (tested: 20 ug/ml)”; in assay [7], “no binding (tested: 2 ug/ml)”.

B7: 23F11-H6L4 (antibody, V domains shown)
VH: QVQLVQSGAEVKKPGASVKVSCKASGYIFTTYWMHWVRQAPGQGLEWIGMIQPNSGGTKYNEKFKKKATLTVDTSISTAYMELSRLRSDDTAVYYCARGAGTVDYFDYWGQGSTLTVSS
VL: DIVLTQSPASLAVSVGQRATITCRASESVDIYGNSFMHWYQQKPGQPPKLLIYRASNLESGIPARFSGSGSRTDFTLTINPVEANDTATYYCQQSTEDPYTFGGGTKLEIK
notes: Humanized; also called humanized 23F11 H6L4
Consider B7, for which, in assay [6], the “EC50 (read off the curve)” value was approximately 2 ng/mL. Further, the “IC50 (read off the curve)” value in assay [1] was approximately 0.04 µg/mL. Further, in assay [2], the Kd came out at 103 nM, the koff is 0.0448 s⁻¹ and the association rate constant (kon) was 435000 M⁻¹ s⁻¹.

B8: 23F11-H6L6 (antibody, V domains shown)
VH: QVQLVQSGAEVKKPGASVKVSCKASGYIFTTYWMHWVRQAPGQGLEWIGMIQPNSGGTKYNEKFKKKATLTVDTSISTAYMELSRLRSDDTAVYYCARGAGTVDYFDYWGQGSTLTVSS
VL: DIVLTQSPASLAVSVGQRATITCRASESVDIYGNSFMHWYQQKPGQPPKLLIYRASNLESGIPARFSGSGSRTDFTLTINPVEANDTATYYCHQSTEDPYTFGGGTKLEIK
notes: produced in 293 cells; light chain constant region not described; also called humanized 23F11 H6L6
Turning to B8, in assay [6], the 50% effective concentration (EC50 (read off the curve)) was approximately 4 ng/mL. Also, in assay [1], the “IC50 (read off the curve)” value was approximately 0.05 µg/mL.

Source of the values: patent US20210009693A1 (MABSPACE BIOSCIENCES SUZHOU, published 2021).
